From article PMC8420772

Target: SeMet-labeled MtMce4A_(39–140) (Mycobacterium tuberculosis H37Rv)
Test: crystal structure; SeMet-labeled protein, 7.5 mg ml^−1; 100 mM MES, 700 mM ammonium sulfate pH 6.0, 22°C; space group P6_(5), 3.6 Å, SAD phasing

SeMet-labeled MtMce4A_(39–140) (domain or fragment)
stoichiometry N: 2
